{
  "source": "the DeepSol protein solubility set",
  "data": [
    {"assay": "soluble on expression in E. coli; label from the status in PepcDB or PDB records", "values": [
      {"sequence": "MGSDKIHHHHHHMNFCRILLKPLKKNEALSGYSAEGLHYLTDNKHFNPELPFSRQEFITVKPQKQQGMSISGFQPKLQLIIKDEHFDSVNQQGNYILKPSPEEYPFLAENEHATMRIMKELGFDVPENGLVSFAGEQNHKEFAFVITRFDRDKQQKPMHQEQLDGAMNIRDKYGKIGADNEQYVSYEQIAKFILQHTENHLAQQREIFRRIIYAYLLGNNDLHLRNFSFIYPKNSHPKLAPIYDFVSVSPYPEIFNSTLLALPLLAREEGNATLAKGFNTQYGEYIGDDFVEFGENIGLNKNVIIQKLIPEIIQEKEKVEQIYSQSFMPQPHIDCVLKTYRKRLALLNLLNEPEL", "soluble on expression in E. coli": "not soluble"},
      {"sequence": "DKKQLVLVLCASGATSSMLANAITKGAKQEGVNVESIAMAYGQHKDVIADYDLIILAPQMASMYEELKADCASKGTKSATTTGKEYVKLTRDPVGALKFALDIINE", "soluble on expression in E. coli": "not soluble"},
      {"sequence": "SGAAGPSSASVKEFQNLVDQHITPFVALSKKLAPEVGNQVEQLVKAIDAEKALINTASQSKKPSQETLLELIKPLNNFAAEVGKIRDSNRSSKFFNNLSAISESIGFLSWVVVEPTPGPHVAEMRGSAEFYTNRILKEFKGVNQDQVDWVSNYVNFLKDLEKYIKQYHTTGLTWNPKGGDAKSATP", "soluble on expression in E. coli": "soluble"},
      {"sequence": "RRSPPADAIPKSKKVKVSHRSHSTEPGLVLTLGQGDVGQLGLGENVMERKKPALVSIPEDVVQAEAGGMHTVCLSKSGQVYSFGCNDEGALGRDTSVEGSEMVPGKVELQEKVVQVSAGDSHTAALTDDGRVFLWGSFRDNNGVIGLLEPMKKSMVPVQVQLDVPVVKVASGNDHLVMLTADGDLYTLGCGEQGQLGRVPELFANRGGRQGLERLLVPKCVMLKSRGSRGHVRFQDAFCGAYFTFAISHEGHVYGFGLSNYHQLGTPGTESCFIPQNLTSFKNSTKSWVGFSGGQHHTVCMDSEGKAYSLGRAEYGRLGLGEGAEEKSIPTLISRLPAVSSVACGASVGYAVTKDGRVFAWGMGTNYQLGTGQDEDAWSPVEMMGKQLENRVVLSVSSGGQHTVLLVKDKEQS", "soluble on expression in E. coli": "soluble"},
      {"sequence": "MGSDKIHHHHHHMKRPPKKPATDRSFVVALSRGLEVLRAFGPNDGLLGNQELAARTKLPKPTISRLTYTLTKLGYLTQVPRFEKYQLAPAAMSLGYAALANLGVRHLSQPYRDELMQQTGGAVAVGARDRISMIYVGQARSSLTVGVQLDVGSRIPIATTAMGRAYLCALQSEERAVLMKEMREYYGSRWPRIKEGIERSEEMVAKHGFAISVGEWQDDVHAAGVALTLNDGTGPYAFNCGAPAFRFTEERLINDIGPRLVAMVRKIEAALGGVAAPQPRKSDNKRTKGGKVARVVEGIR", "soluble on expression in E. coli": "not soluble"},
      {"sequence": "MREIPLVSVALATYNGERYLRRQLDSVLAQTYRNIEIVVSDDCSRDGTVAILEEYRRAHGITFRVNERNLGFVRNFERALAGCRGEFIALSDQDDIWLPEKIETLVREIGPHSLIYTDALLIDGDDQPLPGSLVEVSGVRPVSGTCFEYFVCNNCVTGCTAMLRRDLLATALPIPEAETYHDWWLAVAASRRNGVVYHAAKLTEYRQHAHNYTGANVRAGLPARIAAHLMGKTAAEKRGYYELLANRARRYRAMADRLNLTPAERSFLEEIGEYAESLLSGGNRMKTFALALKYRETLFPAAGRWEKLLFVFSKLIAARAILEHHHHHH", "soluble on expression in E. coli": "soluble"},
      {"sequence": "MSLDIVLVGCKGFGKEHLRIYSKLGYDVSIVERDSNEAKRCSELFRVYKVYDNYEDALRSGSNIVDLVVPDGLHYEMGSLALKSKKHLLVEKPITPDIDSGISLIQQAEESKLKLMVAEQFYFDPSVNEAIRRINNGEIGKPHTVIVRHQSFRELKGWRNEKSMMGRGILIDEGTHYIDTLLNFGGRYRSLRSFVHRTWDFLGEDTAEAVFNFENGMHGLFFYSWNYPEYPLLPEFEIIGDAGSIYEDIGTKPTEPWDQRKRKTAYGDIIVNGKHIPVEPYDVIEREISGFLNAVEKDEPVPMPPDLALRDIITIDRIYKASSDEGHHHHHH", "soluble on expression in E. coli": "soluble"},
      {"sequence": "GPGSMRTSADIACLLAQYIKGQPEERLVTAAAYPDIFTPDVVEELNGAYALLLDAQRQAREACCAVDDVTREHGLPTALRITPKEQNELDVTEEMMIKRFAEEVAVYLSEGGAPNISSDAEPTSVLNSHCVDLRWHQHSTLVLHVLSYLPLEFTLSVAENVCKGWREWLFIPEFSGMFWHECTMREYPECVRMLLLSGGGDARQCDWRTFAMLCCSVDEEDISGEGTRSPDLVHS", "soluble on expression in E. coli": "not soluble"},
      {"sequence": "MGSDKIHHHHHHMEETFQLLYDTYHQDLYQFLFYMVKDKNQTEDLLQEVYIRVLNSYHTFEGRSSEKTWLLSIARHVAIDWFRKQQTIRQRILGTFDWDTQDVRDQQLLPDELAVQHENVREISCALDQCTIDQRAVIILRFIQGYSIQETAKALRFSESKVKTTQHRGLKVLRKHMELLREELMDDEVRMERRTDKGVVKSTSGS", "soluble on expression in E. coli": "not soluble"},
      {"sequence": "MSLKKIEKIIEKEIHKNKLLQALMKKNQKTDKKTVFELVKQFNQKLNLTTILKTIRTKRSTYYYWLKAENKIKAKKEKYLLQQNRIKALCLHQQYFYGHRKITDLYQKTFNEFITKKKVYTIMKKNDINCRLRIKKNKYNYKNNLKTKLKVVDNLINQDFISIAPLQKLFTDITYFKIPQGFLYFSCIIDSFNNQIIASHTSKHQNKELVLNTIQKLPLLKEPCIIHSDQGTVYQSQKVQQTLTKKGFLISMSRKATPRDNAVIENFFGQMKTILQHQHPFLFQKSTKKLKKIINHFPKFWNNQWILAKLNYSSPSQYSQNLIEGHHHHHH", "soluble on expression in E. coli": "not soluble"},
      {"sequence": "LNKTVKHMWPFICQFIEKLFRETIEPAVRGANTHLSTFSFTKVDVGQQPLRINGVKVYTENVDKRQIILDLQISFVGNCEIDLEIKRYFCRAGVKSIQIHGTMRVILEPLIGDMPLVGALSIFFLRKPLLEINWTGLTNLLDVPGLNGLSDTIILDIISNYLVLPNRITVPLVSEVQIAQLRFPVPKGVLRIHFIEAQDLQGKDTYLKGLVKGKSDPYGIIRVGNQIFQSRVIKENLSPKWNEVYEALVYEHPGQELEIELFDEDPDKDDFLGSLMIDLIEVEKERLLDEWFTLDEVPKGKLHLRLEWLTLMPNASNLDKVLTDIKADKDQANDGLSSALLILYLDSARNLPSGKKISSNPNPVVQMSVGHKAQESKIRYKTNEPVWEENFTFFIHNPKRQDLEVEVRDEQHQCSLGNLKVPLSQLLTSEDMTVSQRFQLSNSGPNSTIKMKIALRVLHLEKRERPPDHQHSAQVKRPSVSKEGRKTSIKSHMSGSPGPGGSNTAPSTPVIGGSDKPGMEEKAQPPEAGPQGLHDLGRSSSSLLASPGHISVKEPTPSIASDISLPIATQELRQRLRQLENGTTLGQSPLGQIQLTIRHSSQRNKLIVVVHACRNLIAFSEDGSDPYVRMYLLPDKRRSGRRKTHVSKKTLNPVFDQSFDFSVSLPEVQRRTLDVAVKNSGGFLSKDKGLLGKVLVALASEELAKGWTQWYDLTEDGTRPQAMT", "soluble on expression in E. coli": "soluble"},
      {"sequence": "MGSDKIHHHHHHMIIGNCLILKDFSSEPFWGAVEIENGTIKRVLQGEVKVDLDLSGKLVMPALFNTHTHAPMTLLRGVAEDLSFEEWLFSKVLPIEDRLTEKMAYYGTILAQMEMARHGIAGFVDMYFHEEWIAKAVRDFGMRALLTRGLVDSNGDDGGRLEENLKLYNEWNGFEGRIFVGFGPHSPYLCSEEYLKRVFDTAKSLNAPVTIHLYETSKEEYDLEDILNIGLKEVKTIAAHCVHLPERYFGVLKDIPFFVSHNPASNLKLGNGIAPVQRMIEHGMKVTLGTDGAASNNSLNLFFEMRLASLLQKAQNPRNLDVNTCLKMVTYDGAQAMGFKSGKIEEGWNADLVVIDLDLPEMFPVQNIKNHLVHAFSGEVFATMVAGKWIYFDGEYPTIDSEEVKRELARIEKELYSS", "soluble on expression in E. coli": "soluble"},
      {"sequence": "MHIEFREFNPFDVWIWLKFSNVPSEREKQYVEEVFNSWFYLGKLGAFNAENLQVQDTGLDISYMDYDPSAYNKSFLALMHNMSEFEYEGEWGRCWFDLGTSDAIALDLLLNSLTQLSEEYVTIEILYIGGENSDWPVEDSETHANADSIYDY", "soluble on expression in E. coli": "not soluble"},
      {"sequence": "GPGSMIFGSEPPLYLKPVGRRGLRRHEADVLQHYPGYSHPVVQLRGSEGYIGDSHRLHPRLTAAEELRHERELGAERRQRVVEVRRRRHCEREANLAQRREDEFQREQRHKAQLAGLCIRNEPGDGRDTITQQYRTEDARRHYEYKHELEKHRYFARQQRLREKTHPHGYNILTGEALPSTVVPPKPSIPSDTQLFAVQNGD", "soluble on expression in E. coli": "not soluble"},
      {"sequence": "MSLNELPEFEDYVVLTQQQNQNYKIVQQFNNFDKAILLGTSTFFEGFDFQANGIKCVMIAKLPFMNKHNAKYWLMDSEFTSTFKEYVLPDAVTRFRQGLGRLIRNENDRGIIVSFDDRLINSNYKNFFEQTLENYRQKKGDIQQFGKLLRQIQKEGHHHHHH", "soluble on expression in E. coli": "not soluble"},
      {"sequence": "MDWQNRFSVLNLSSHDPLPELMLTHLTGWGAITLVGADKKAYLQGQVTCNVVSLQEQQVTFGAHCDAKGKVWSVFRLFHHHDGYAMFQPQSAMEVELRELKKYAIFSKVTIAESSDIALGVMGSQADAWIDTVSETTGDVRRIAGGTAVRMSPQRWLLLVNAEQAEQYVNAWQGLHVEQSLWTRMDIEEAVPVVTQTAQNEHIPQALNVQAVDGISFTKGCYTGQETVARAKYRGINKRAMYIVKGNLSAPLSQDEPVVLERAVGENWRSAGALLTHYRFTDSIAIGLIVLPNDLEHDVKLRLAAQPDTRWHIQPLPYSLSDELEHHHHHH", "soluble on expression in E. coli": "soluble"},
      {"sequence": "MTQTVYVKLSQITQVHKKDVFLSDIADVYCSDKSTASRCKAVKVQTIHSDQEKRYMGSIVDVVQKISENVPEAEVNSVGETDFIIDYQPSKKPMYTWQW", "soluble on expression in E. coli": "not soluble"},
      {"sequence": "MGHHHHHHSHMSHKNMKLKERVLIPVKQYPKFNFVGKILGPQGNTIKRLQEETGAKISVLGKGSMRDKAKEEELRKGGDPKYAHLNMDLHVFIEVFGPPCEAYALMAHAMEEVKKFLVPDMMDDICQEQFLELSYLNGVPEPS", "soluble on expression in E. coli": "not soluble"},
      {"sequence": "MSDEKIINQPQDVVSEMLDGLTYAYGDLIEKVPDFEIIQRKSPKSGKVALVSGGGSGHEPAHAGFVGEGMLSAAVCGAIFTSPTPDQIYEAIKSADEGAGVLLIIKNYLGDVMNFEMAREMAEMEEIKVEQIIVDDDIAVENSLYTQGRRGVAGTVLVHKILGAAAHQEASLDEIKDLADKVVKNIKTIGLALSAATVPEVGKPGFVLDDNEIEYGVGIHSEPGYRREKMKTSYELATELVGKLKEEFKFEAGQKYGILVNGMGATPLMEQFIFMNDVAKLLTEENIEILFKKVGNYMTSIDMAGLSLTMIKLEDDQWLKNLNEDVKTISWG", "soluble on expression in E. coli": "soluble"},
      {"sequence": "MTPIPFFNHMLITLLTYMNSTAIVSATDKLPYDDHHIVEDVAITLGLAIKTALGDKRGIKRFSHQIIPMDDALVLVSLDISNRGMAFVNLNLKRSEIGGLATENVPHFFQSFAYNSGITLHISQLSGYNTHHIIEASFKALGLALY", "soluble on expression in E. coli": "soluble"},
      {"sequence": "DEMVRFNPKKMSLKKEQVIKIIKIGAPAGLQGVVFSVSNVCIQSAINGFGTKAIAGSSAALNYEYFTYYVINAFNQTTVTFTSQNYGAKKLERCKKA", "soluble on expression in E. coli": "not soluble"},
      {"sequence": "MGSDKIHHHHHHMTLRERRQKHKAQFRQEILDASRELFSQIGYERFSMRKLAAKIEHSPTTIYLYFRDKDDLLYSLCEELFAKLFQSYQDISRGENDPRQVLRLCLLRYIEFGLANPGHYKVAFFTSPVVYGSPTEFLQKDSMGRRTYFHILRTVEETMAAGMLRPMDADLLAQTVWVAAHGVVTSRIYSADFPMVDAVLQAETLVDGLLAGFSVKNFFGTNIYTVN", "soluble on expression in E. coli": "not soluble"},
      {"sequence": "MTKYALVGDVGGTNARLALCDIASGEISQAKTYSGLDYPSLEAVVRVYLDEHSVSVEDGCIAIACPITGDWVAMTNHTWAFSIAEMKKNLGFSHLEIINDFTAVSMAIPMLKKEHLIQFGGGEPVDGKPIAVYGAGTGLGVAHLVHVDKRWISLPGEGGHVDFAPNSEEEAMILEILRAEIGHVSAERVLSGPGLVNLYRAIVKSDNRLPENLRPKDITERALADSCIDCRRALSLFCVIMGRFGGDLALTMGTFGGVYIAGGIVPRFLEFFKASGFRGGFEDKGRFKDYVHGIPVYLIVHDNPGLLGSGAHLRQTLGHIL", "soluble on expression in E. coli": "not soluble"}
    ]}
  ]
}
